# In patent US20220332816A1 (SINGLE CELL TECHNOLOGY, published 2022):
# Numbering of substitutions follows the chain as printed.
# T1: Recombinant human TIGIT (human, UniProt Q495A1 22-141, limits assumed)
# T1 construct: also called T cell immunoreceptor with Ig and ITIM domains
# T1 sequence: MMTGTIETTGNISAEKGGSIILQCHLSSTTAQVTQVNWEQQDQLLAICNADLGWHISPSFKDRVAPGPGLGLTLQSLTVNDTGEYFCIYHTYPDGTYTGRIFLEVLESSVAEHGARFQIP
# T2: TIGIT on the engineered cell lines of the TIGIT/CD155 Blockade Bioassay (J2201, Promega) (UniProt Q495A1 22-244, limits assumed)
# T2 sequence (looked up): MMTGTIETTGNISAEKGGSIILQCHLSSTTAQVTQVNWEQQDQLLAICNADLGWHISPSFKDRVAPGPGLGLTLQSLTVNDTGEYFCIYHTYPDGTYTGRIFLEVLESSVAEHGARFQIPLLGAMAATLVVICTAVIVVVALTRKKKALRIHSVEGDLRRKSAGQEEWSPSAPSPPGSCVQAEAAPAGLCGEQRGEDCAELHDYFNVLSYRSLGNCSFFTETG
# B1: SCT-Ga249 (antibody, V domains shown)
# VH: QVQLQQSGGELMKPGASVKISCKATGYTFSNYWIEWVKQRPGHGLEWIGEILPGSGSSYYNEKFKGRATFTADKSSNTAYMQLSSLTSEDSAVYYCARQKYGNFYYFDFWGQGTTLTVSS
# VL: AIQMTQTTSSLSASLGDRVTISCSASQGIGNYLNWYQQKPDGTVKLLIYYTSSLHSGVPSRFSGSGSGTDYSLTISDLEPEDIATYYCHQYSKLPYTFGGGTKLEIK
# notes: Murine variable domains
# B2: SCT-Ga485 (antibody, V domains shown)
# VH: QVQLVQSGAEVKKPGASVKVSCKASGYAFTNYLIEWVKQAPGQGLEWIGVINPGSGGSKYNEKFKGRATITADKSTSTAYMELSSLRSEDTAVYFCARTGVYGNFLIFDYWGQGTTVTVSS
# VL: DIVMTQSPDSLAVSLGERATINCKSSQSLLNSGIQKNYLAWYQQKPGQPPKLLIYGASTRESGVPDRFSGSGSGTDFTLTISSLQAEDVAVYYCQNDHRYPFTFGGGTKLEIK
# B3: SCT-Ga333 (antibody, V domains shown)
# VH: QVQLQQSGAELVRPGTSVKVSCKASGYAFTNYLIEWVKQRPGQGLEWIGVINPGSGGNNYNEKFKGKATLTADKSSSTAYMQLSSLTSDDSAVYFCARRGDKYGSAWFAYWGQGTLVTVSA
# VL: DIVMTQSHKFMSTSVGDRVSITCKASQDVSTAVAWYQQKPGQSPKLLIYSASYRYTGVPDRFTGSGSGTDFTFTISSVQAEDLAVYYCQQHYSSPRTFGGGTKLEIK
# notes: Murine variable domains
# B4: SCT-Ga498 (antibody, V domains shown)
# VH: QVQLQQSGAEVKKPGASVKVSCKASGYAFTNYLIEWVKQAPGQGLEWIGVINPGSGGNNYNEKFKGRATITADKSTSTAYMELSSLRSEDTAVYFCARRGDKYGSAWFAYWGQGTTVTVSA
# VL: B3 VL with H8Q, K9R, S14T, F73L, S77N, V78M, A80S
# B5: SCT-Ga461 (antibody, V domains shown)
# VH: EVQLVESGGGLVQPGGSLRLSCAASGFTFSSYTMSWVRQAPGKGLEWVATISSGGSYTYYPDSVKGRFTISRDNAKNTLYLQMNSLRAEDTAVYYCTRWLLSLYAMDYWGQGTLVTVSS
# VL: AIQMTQSPSSLSASVGDRVTITCQASQNINVWLSWYQQKPGKAPKLLIYKASTLASGVPSRFSGSGSGTDFTLTISSLQPDDFATYYCQQGQTYPFTFGGGTKVEIK
# B6: SCT-Ga255 (antibody, V domains shown)
# VH: EVKLVESGGGLVKPGGSLKLSCAASGFAFSSFDMSWVRQTPEKRLEWVAVISSGGSYTFYPDSVKGRFTISRDNARNTLYLQMSSLRSEDTALYFCTRQDYRYPYIMDYWGQGTSVTVSS
# VL: DIQMNQSPSSLSASLGDTITITCHASQNINVWLSWYQQKPGNIPKLLIYKASNLHTGVPSRFSGSGSGAGFTLTISSLQPEDIATYYCQQGQSYPWTFGGGTKLEIK
# notes: Murine variable domains
# B7: SCT-Ga433 (antibody, V domains shown)
# VH: DVKLVESGGGLVKPGGSLKLSCSASGFTFSSYTMSWVRQTPEKRLEWVATISSGGSYTYYPDSVKGRFTISRDNAKNTLYLQMSSLKSEDTAMFYCTRWLLSLYAMDYWGQGTSVTVSS
# VL: B6 VL with P44S, L54F, A69T, G70N, S93T, W96F
# notes: Murine variable domains
# B8: SCT-Ga495 (antibody, V domains shown)
# VH: B6 VH with K13Q, K19R, T40A, E42G, R44G, A75S, R76K, S84N, S88A, S115L
# VL: B5 VL with T93S, F96W
# B9: SCT-Ga496 (antibody, V domains shown)
# VH: B6 VH with K13Q, K19R, T40A, E42G, R44G, A75S, R76K, S84N, S88A, S115L
# VL: B5 VL with A1D, Q24H, T93S, F96W
# B10: SCT-Ga001 (antibody, V domains shown)
# VH: QVQLQQSGAELVRPGTSVKVSCKASGYAFTNYLIEWVKQRPGQGLEWIGVINPGSGGSKYNEKFKGKTTLTADKSSSTAYMQLSSLTSEDSAVYFCARTGVYGNFLIFDYWGQGTTLTVSS
# VL: DIVLTQSPSSLSVAAGEKVTLSCKSSQSLLNSGIQKNYLAWYQQKPGQPPKLLIYGASTRESGVPDRFTGSGSGTDFTLTISSVQAEDLAVYYCQNDHRYPFTFGGGTKLEIK
# notes: Murine variable domains
# B11: SCT-Ga487 (antibody, V domains shown)
# VH: QVQLQQPGAELVKPGASVKMSCKATGYTFSNYWIEWVKQTPGRGLEWIGEILPGSGSSYYNQKFKGKATLTADKSSSTAYMQLSSLTSEDSAVYYCARQKYGNFYYFDFWGAGTTVTVSA
# VL: AIQMTQSPSSLSASVGDRVTITCRASQGIGNYLNWYQQKPGKAPKLLIYYTSSLHSGVPSRFSGSGSGTDYTFTISSLQPEDIATYYCHQYSKLPYTFGQGTKVEIK
# Biological target: T1, Recombinant human TIGIT
# Assay: ELISA, recombinant human TIGIT coated on plate, serially diluted antibody
# Procedure: The recombinantly expressed antibodies were used to assess binding activity to TIGIT by conventional ELISA according to the known art. Recombinant human TIGIT was coated onto ELISA plates to detect binding at serially diluted concentrations of the anti-TIGIT antibody preparations (FIG. 1). Anti-TIGIT antibodies' blockade activity was assessed using engineered cell lines, kit reagents (TIGIT/CD155 Blockade Bioassay, J2201, Promega, Madison, Wis.), and a luminometer (Promega, Madison, Wis.) and the results were used to compare against benchmark antibodies with known blockade activity (FIG. 2). Similarly, these antibodies were assessed for their ability to synergize with an anti-PD-1 antibody using a PD-1+TIGIT combination bioassay (Cat. No. J2211 Promega, Madison, Wis.).
row,EC50 [nM],Molecule
1,1.22,B1
2,0.79,B2
3,1.08,B3
4,0.82,B4
5,4.55,B5
6,0.96,B6
7,1.1,B7
8,0.69,B8
9,0.67,B9
10,5.03,B10
11,1.96,B11

# Biological target: T2, TIGIT on the engineered cell lines of …
# Assay: cell-based or functional assay
row,Blockade EC50 [nM],Molecule
1,28.1,B1
2,42.2,B3
3,33.4,B6
4,25.2,B7
5,26.6,B10

# Biological target: TIGIT on the engineered cell lines of the TIGIT/CD155 Blockade Bioassay (J2201, Promega) (UniProt Q495A1)
# Assay: cell-based or functional assay
row,Blockade EC50 [nM],Molecule
1,24.8,MK-7684 (antibody)
